# ± gives the standard error. Fewer inactive variants are shown than the library holds.
# B1: glmS ribozyme (parent)
# chain: AUAAAAGCGCCAGAACUACAGAAAUGUAGUUGACGAGGAGGAGGUUUAUCGAAUUUUCGGCGGAUGCCUCCAAA
# Key:
# Details in all cases: with glucosamine-6-phosphate
# glucosamine-6-phosphate [1] = variants of: B1; experiment: self-cleavage kobs at 160 uM GlcN6P; higher = faster cleavage; RNA array
# Procedure, shortened: (§1)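 The measurements used barcoded ribozyme variants on sequenced MiSeq chips, transcribed in situ by E. coli RNA polymerase and tracked at 37 °C with a hybridised Cy3 probe. Glucosamine-6-phosphate, 40 μM to 10 mM in HEPES/KCl/Mg(OAc)2 buffer, was flowed in while tiles were imaged over ~14 h. Baseline-normalised signals, also normalised to non-cleaving reference variants, gave per-tile medians that were fit to one- or two-exponential decays for kobs. kcat and KM resulted from weighted Michaelis–Menten fits across concentrations.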
# glucosamine-6-phosphate [2] = variants of: B1; experiment: self-cleavage kobs at 2500 uM GlcN6P; higher = faster cleavage; RNA array
# Procedure, shortened: as §1
# glucosamine-6-phosphate [3] = variants of: B1; experiment: self-cleavage kobs at 640 uM GlcN6P; higher = faster cleavage; RNA array
# Procedure, shortened: as §1
# glucosamine-6-phosphate [4] = variants of: B1; experiment: self-cleavage kobs at 10000 uM GlcN6P; higher = faster cleavage; RNA array
# Procedure, shortened: as §1
Variant,self-cleavage kobs at 160 uM GlcN6P (glucosamine-6-phosphate [1]),self-cleavage kobs at 2500 uM GlcN6P (glucosamine-6-phosphate [2]),self-cleavage kobs at 640 uM GlcN6P (glucosamine-6-phosphate [3]),self-cleavage kobs at 10000 uM GlcN6P (glucosamine-6-phosphate [4])
A12G C34A C50A G60C,< 1e-05 s⁻¹,< 1e-05 s⁻¹,,
A12G G35U G51U C68G U69A,< 1e-05 s⁻¹,,< 1e-05 s⁻¹,
G41U A52U U57C,< 1e-05 s⁻¹,,,
U45A A53U U65A,0.000624 ± 0.00014 s⁻¹,0.00652 ± 0.0016 s⁻¹,0.0024 ± 0.00081 s⁻¹,
G29A U31C C34U,< 1e-05 s⁻¹,< 1e-05 s⁻¹,< 1e-05 s⁻¹,
C10G A12U U31A A33U G63A,< 1e-05 s⁻¹,,,
C16A A33U A36C A39C G43U,< 1e-05 s⁻¹,,,
C34G C50G,5.61e-05 ± 2.4e-05 s⁻¹,9.6e-05 ± 3.6e-05 s⁻¹,0.00014 ± 5.7e-05 s⁻¹,
G7C C68U,< 1e-05 s⁻¹,< 1e-05 s⁻¹,< 1e-05 s⁻¹,< 1e-05 s⁻¹
U49G G51C C61U G63A,< 1e-05 s⁻¹,,,
G44A G66C,< 1e-05 s⁻¹,,,
A6G C34G G51U G63A,< 1e-05 s⁻¹,< 1e-05 s⁻¹,< 1e-05 s⁻¹,
C16U G29C C67A,0.00011 ± 2.1e-05 s⁻¹,0.00106 ± 0.00017 s⁻¹,0.000258 ± 4.5e-05 s⁻¹,
A33U U54G U56G C61G U69C,9.03e-05 ± 2.7e-05 s⁻¹,0.000171 ± 6e-05 s⁻¹,0.00035 ± 0.00013 s⁻¹,
A6G G7A G43C,< 1e-05 s⁻¹,< 1e-05 s⁻¹,< 1e-05 s⁻¹,< 1e-05 s⁻¹
A36C U46G A52G G60U,< 1e-05 s⁻¹,< 1e-05 s⁻¹,< 1e-05 s⁻¹,
G7C C10G,< 1e-05 s⁻¹,< 1e-05 s⁻¹,< 1e-05 s⁻¹,
C10A A15G C34A G44A C67A C68A,< 1e-05 s⁻¹,< 1e-05 s⁻¹,< 1e-05 s⁻¹,
G7A U56C,< 1e-05 s⁻¹,< 1e-05 s⁻¹,< 1e-05 s⁻¹,< 1e-05 s⁻¹
G37C G51U,< 1e-05 s⁻¹,,,< 1e-05 s⁻¹
G13U G32U C34A G44A,< 1e-05 s⁻¹,< 1e-05 s⁻¹,,
A14C C50G C70G,0.000127 ± 3.4e-05 s⁻¹,0.000126 ± 3.1e-05 s⁻¹,0.000437 ± 0.00014 s⁻¹,7.94e-05 ± 1.8e-05 s⁻¹
G41A C68U C70U,0.000155 ± 3.4e-05 s⁻¹,0.00138 ± 0.00025 s⁻¹,0.00049 ± 8.2e-05 s⁻¹,
A12U C34U A36U U55G,< 1e-05 s⁻¹,,< 1e-05 s⁻¹,< 1e-05 s⁻¹
A14C G66A C71U,0.000171 ± 5.4e-05 s⁻¹,0.00114 ± 0.00023 s⁻¹,0.000399 ± 9.8e-05 s⁻¹,

Variant,self-cleavage kobs at 160 uM GlcN6P (glucosamine-6-phosphate [1]),self-cleavage kobs at 2500 uM GlcN6P (glucosamine-6-phosphate [2]),self-cleavage kobs at 640 uM GlcN6P (glucosamine-6-phosphate [3]),self-cleavage kobs at 10000 uM GlcN6P (glucosamine-6-phosphate [4])
C8A G9U C19A G29C C34A A48C,< 1e-05 s⁻¹,< 1e-05 s⁻¹,,
U47A G66A,0.00046 ± 0.00012 s⁻¹,0.00842 ± 0.0039 s⁻¹,0.00249 ± 0.00067 s⁻¹,
A28G C70A,0.000126 ± 3.7e-05 s⁻¹,0.000497 ± 0.00012 s⁻¹,6.33e-05 ± 2.1e-05 s⁻¹,
C61G A64U U65A C68U,< 1e-05 s⁻¹,,< 1e-05 s⁻¹,
C50A C70G,0.001 ± 0.00045 s⁻¹,6.7e-05 ± 8.5e-06 s⁻¹,7.68e-05 ± 1.2e-05 s⁻¹,
U31A G38A A42C,< 1e-05 s⁻¹,,< 1e-05 s⁻¹,
A12G G40A A42C,< 1e-05 s⁻¹,< 1e-05 s⁻¹,,
C8U G63A,< 1e-05 s⁻¹,< 1e-05 s⁻¹,,< 1e-05 s⁻¹
C16U G40C C50A C67G,< 1e-05 s⁻¹,,< 1e-05 s⁻¹,
G35A G43U C68U,< 1e-05 s⁻¹,< 1e-05 s⁻¹,,
G9A C50A,< 1e-05 s⁻¹,< 1e-05 s⁻¹,< 1e-05 s⁻¹,< 1e-05 s⁻¹
G7A G35A G51C,< 1e-05 s⁻¹,< 1e-05 s⁻¹,,
U30G A39U G60U,< 1e-05 s⁻¹,< 1e-05 s⁻¹,,
A36U U57C,< 1e-05 s⁻¹,,,< 1e-05 s⁻¹
A42C U69A,5.29e-05 ± 2.2e-05 s⁻¹,0.000182 ± 4.1e-05 s⁻¹,0.000125 ± 3.8e-05 s⁻¹,0.0008 ± 0.00018 s⁻¹
A14C A23C G43C,< 1e-05 s⁻¹,< 1e-05 s⁻¹,< 1e-05 s⁻¹,
C10A A12G C16A U47C G63A C67G,< 1e-05 s⁻¹,,< 1e-05 s⁻¹,
C8G G13A U54A G62A,< 1e-05 s⁻¹,,< 1e-05 s⁻¹,
A6G G43U U65C,< 1e-05 s⁻¹,< 1e-05 s⁻¹,< 1e-05 s⁻¹,
U45C G62U,< 1e-05 s⁻¹,< 1e-05 s⁻¹,< 1e-05 s⁻¹,< 1e-05 s⁻¹
G29A G40C U55A U56G C67U,< 1e-05 s⁻¹,< 1e-05 s⁻¹,< 1e-05 s⁻¹,
G38U G41A C58A C61A,< 1e-05 s⁻¹,,< 1e-05 s⁻¹,
A15U A39C C58A C70G,< 1e-05 s⁻¹,,,
A33U G37A,< 1e-05 s⁻¹,,,
